Results published in US20240423923A1, “EXTRACELLULAR VESICLES FROM MICROALGAE, THEIR BIODISTRIBUTION UPON ADMINISTRATION, AND USES” (AGS THERAPEUTICS SAS, priority 2022, published 2024).

Legend:
[1] = biological target: Flagellin Sensing 2 receptor (FLS2) (Arabidopsis thaliana) (UniProt Q9FL28); assay: cell-based or functional assay
[2] = medial prefrontal cortex, anterior cingulate cortex, central nucleus of amygdala; cited from earlier work

UniProt Q9FL28, sequence (Q9FL28 24-1173): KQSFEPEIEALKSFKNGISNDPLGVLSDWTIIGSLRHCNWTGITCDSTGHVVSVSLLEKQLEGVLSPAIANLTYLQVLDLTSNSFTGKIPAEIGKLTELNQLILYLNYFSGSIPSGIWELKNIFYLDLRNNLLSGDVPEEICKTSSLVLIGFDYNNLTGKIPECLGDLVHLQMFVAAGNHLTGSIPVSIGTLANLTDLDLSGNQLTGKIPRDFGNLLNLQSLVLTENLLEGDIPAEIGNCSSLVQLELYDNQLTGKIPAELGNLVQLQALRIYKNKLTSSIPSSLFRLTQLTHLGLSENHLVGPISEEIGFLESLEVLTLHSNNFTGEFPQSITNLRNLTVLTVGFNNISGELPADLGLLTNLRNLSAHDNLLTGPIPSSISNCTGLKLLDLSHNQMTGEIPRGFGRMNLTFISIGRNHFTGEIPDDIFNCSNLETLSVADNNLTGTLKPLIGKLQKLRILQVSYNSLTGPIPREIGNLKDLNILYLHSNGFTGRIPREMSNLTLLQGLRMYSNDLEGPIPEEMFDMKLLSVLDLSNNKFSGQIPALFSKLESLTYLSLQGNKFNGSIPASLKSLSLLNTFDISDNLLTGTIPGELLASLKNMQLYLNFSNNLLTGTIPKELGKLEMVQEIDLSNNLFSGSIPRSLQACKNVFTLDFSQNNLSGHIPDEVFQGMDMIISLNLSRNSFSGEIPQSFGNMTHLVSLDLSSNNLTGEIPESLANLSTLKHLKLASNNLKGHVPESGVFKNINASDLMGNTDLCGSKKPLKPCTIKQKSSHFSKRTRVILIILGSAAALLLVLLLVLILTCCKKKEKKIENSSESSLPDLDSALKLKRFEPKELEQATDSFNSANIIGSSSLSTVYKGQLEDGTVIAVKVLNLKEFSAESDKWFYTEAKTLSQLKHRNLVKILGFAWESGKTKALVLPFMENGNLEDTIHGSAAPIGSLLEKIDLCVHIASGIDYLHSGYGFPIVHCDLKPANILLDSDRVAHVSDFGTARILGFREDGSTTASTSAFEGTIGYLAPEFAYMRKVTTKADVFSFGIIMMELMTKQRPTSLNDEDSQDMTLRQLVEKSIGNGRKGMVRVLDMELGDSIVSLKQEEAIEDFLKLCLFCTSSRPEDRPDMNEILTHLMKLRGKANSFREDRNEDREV
flg22 peptide (22 amino acid synthetic peptide that mimics the conserved N-terminal region of bacterial flagellin), sequence (P21184 30-51): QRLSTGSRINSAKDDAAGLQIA

Compound | stomatal closure assay; effect of flg22-loaded EVs compared with free flg22 peptide [1] | increase in Fos-like immunoreactivity [2]
flg22 peptide (22 amino acid synthetic peptide that mimics the conserved N-terminal region of bacterial flagellin) | > 10 nM | –
CCN(CC)C(=O)[C@@H]1C=C2c3cccc4[nH]cc(c34)C[C@H]2N(C)C1 [LSD, Lysergic acid diethylamide] | – | a five- to eight-fold increase
